Measurements taken from the supplement of paper PMC10567573.

B1: TRIB1 (parent)
chain: EIGTSDQIVPEYQEDSDISSFFC

Variants of: B1
Assay: protein stability index of a GFP-peptide fusion (GPS, HEK-293T) (PSI 1-6); higher = more stable
Conditions: c terminus: native
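Note: lentivirally expressed fusions sorted by FACS into six bins by GFP to DsRed ratio, PSI derived from sequencing read proportions per bin multiplied by bin number.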

Variant	protein stability index
EIYTSDQIVPEYQEDSDISSFFC [G3Y]	2.38
EIGASDQIVPEYQEDSDISSFFC [T4A]	3.23
EIGCSDQIVPEYQEDSDISSFFC [T4C]	2.33
EIGDSDQIVPEYQEDSDISSFFC [T4D]	2.32
EIGESDQIVPEYQEDSDISSFFC [T4E]	2.86
EIGFSDQIVPEYQEDSDISSFFC [T4F]	3.18
EIGGSDQIVPEYQEDSDISSFFC [T4G]	3.12
EIGHSDQIVPEYQEDSDISSFFC [T4H]	2.55
EIGISDQIVPEYQEDSDISSFFC [T4I]	2.62
EIGKSDQIVPEYQEDSDISSFFC [T4K]	3.25
EIGLSDQIVPEYQEDSDISSFFC [T4L]	2.77
EIGMSDQIVPEYQEDSDISSFFC [T4M]	2.67
EIGNSDQIVPEYQEDSDISSFFC [T4N]	2.39
EIGPSDQIVPEYQEDSDISSFFC [T4P]	3.22
EIGQSDQIVPEYQEDSDISSFFC [T4Q]	2.25
EIGRSDQIVPEYQEDSDISSFFC [T4R]	2.88
EIGSSDQIVPEYQEDSDISSFFC [T4S]	2.87
EIGVSDQIVPEYQEDSDISSFFC [T4V]	2.67
EIGWSDQIVPEYQEDSDISSFFC [T4W]	2.73
EIGYSDQIVPEYQEDSDISSFFC [T4Y]	3.1
EIGTADQIVPEYQEDSDISSFFC [S5A]	2.81
EIGTCDQIVPEYQEDSDISSFFC [S5C]	2.72
EIGTDDQIVPEYQEDSDISSFFC [S5D]	2.97
EIGTEDQIVPEYQEDSDISSFFC [S5E]	2.77
EIGTFDQIVPEYQEDSDISSFFC [S5F]	2.31

Variant	protein stability index
EIGTGDQIVPEYQEDSDISSFFC [S5G]	3.2
EIGTHDQIVPEYQEDSDISSFFC [S5H]	3.06
EIGTIDQIVPEYQEDSDISSFFC [S5I]	2.95
EIGTKDQIVPEYQEDSDISSFFC [S5K]	3.47
EIGTLDQIVPEYQEDSDISSFFC [S5L]	2.95
EIGTMDQIVPEYQEDSDISSFFC [S5M]	2.56
EIGTNDQIVPEYQEDSDISSFFC [S5N]	2.9
EIGTPDQIVPEYQEDSDISSFFC [S5P]	3.07
EIGTQDQIVPEYQEDSDISSFFC [S5Q]	2.42
EIGTRDQIVPEYQEDSDISSFFC [S5R]	2.77
EIGTTDQIVPEYQEDSDISSFFC [S5T]	2.2
EIGTVDQIVPEYQEDSDISSFFC [S5V]	3.15
EIGTWDQIVPEYQEDSDISSFFC [S5W]	3.02
EIGTYDQIVPEYQEDSDISSFFC [S5Y]	1.73
EIGTSAQIVPEYQEDSDISSFFC [D6A]	4.92
EIGTSCQIVPEYQEDSDISSFFC [D6C]	4.7
EIGTSEQIVPEYQEDSDISSFFC [D6E]	4.77
EIGTSFQIVPEYQEDSDISSFFC [D6F]	4.14
EIGTSGQIVPEYQEDSDISSFFC [D6G]	5.55
EIGTSHQIVPEYQEDSDISSFFC [D6H]	4.9
EIGTSIQIVPEYQEDSDISSFFC [D6I]	4.07
EIGTSKQIVPEYQEDSDISSFFC [D6K]	5.18
EIGTSLQIVPEYQEDSDISSFFC [D6L]	4.45
EIGTSMQIVPEYQEDSDISSFFC [D6M]	4.3
EIGTSNQIVPEYQEDSDISSFFC [D6N]	4.69

Variant	protein stability index
EIGTSPQIVPEYQEDSDISSFFC [D6P]	4.84
EIGTSQQIVPEYQEDSDISSFFC [D6Q]	5.04
EIGTSRQIVPEYQEDSDISSFFC [D6R]	5.04
EIGTSSQIVPEYQEDSDISSFFC [D6S]	5.45
EIGTSTQIVPEYQEDSDISSFFC [D6T]	5.07
EIGTSVQIVPEYQEDSDISSFFC [D6V]	4.57
EIGTSWQIVPEYQEDSDISSFFC [D6W]	4.11
EIGTSYQIVPEYQEDSDISSFFC [D6Y]	4.65
EIGTSDAIVPEYQEDSDISSFFC [Q7A]	5.23
EIGTSDCIVPEYQEDSDISSFFC [Q7C]	5.1
EIGTSDDIVPEYQEDSDISSFFC [Q7D]	5.53
EIGTSDEIVPEYQEDSDISSFFC [Q7E]	5.58
EIGTSDFIVPEYQEDSDISSFFC [Q7F]	3.76
EIGTSDGIVPEYQEDSDISSFFC [Q7G]	5.28
EIGTSDHIVPEYQEDSDISSFFC [Q7H]	5
EIGTSDIIVPEYQEDSDISSFFC [Q7I]	4.95
EIGTSDKIVPEYQEDSDISSFFC [Q7K]	5.04
EIGTSDLIVPEYQEDSDISSFFC [Q7L]	4.94
EIGTSDMIVPEYQEDSDISSFFC [Q7M]	4.79
EIGTSDNIVPEYQEDSDISSFFC [Q7N]	4.88
EIGTSDPIVPEYQEDSDISSFFC [Q7P]	5.3
EIGTSDRIVPEYQEDSDISSFFC [Q7R]	5.27
EIGTSDSIVPEYQEDSDISSFFC [Q7S]	5.2
EIGTSDTIVPEYQEDSDISSFFC [Q7T]	5.64
EIGTSDVIVPEYQEDSDISSFFC [Q7V]	5.02

Variant	protein stability index
EIGTSDWIVPEYQEDSDISSFFC [Q7W]	4
EIGTSDYIVPEYQEDSDISSFFC [Q7Y]	4.43
EIGTSDQAVPEYQEDSDISSFFC [I8A]	4.82
EIGTSDQCVPEYQEDSDISSFFC [I8C]	3.62
EIGTSDQDVPEYQEDSDISSFFC [I8D]	5.12
EIGTSDQEVPEYQEDSDISSFFC [I8E]	4.19
EIGTSDQFVPEYQEDSDISSFFC [I8F]	5.17
EIGTSDQGVPEYQEDSDISSFFC [I8G]	4.66
EIGTSDQHVPEYQEDSDISSFFC [I8H]	5.15
EIGTSDQKVPEYQEDSDISSFFC [I8K]	4.03
EIGTSDQLVPEYQEDSDISSFFC [I8L]	4.11
EIGTSDQMVPEYQEDSDISSFFC [I8M]	3.54
EIGTSDQNVPEYQEDSDISSFFC [I8N]	5.32
EIGTSDQPVPEYQEDSDISSFFC [I8P]	5.36
EIGTSDQQVPEYQEDSDISSFFC [I8Q]	3.93
EIGTSDQRVPEYQEDSDISSFFC [I8R]	3.56
EIGTSDQSVPEYQEDSDISSFFC [I8S]	5.18
EIGTSDQTVPEYQEDSDISSFFC [I8T]	4.29
EIGTSDQVVPEYQEDSDISSFFC [I8V]	2.07
EIGTSDQWVPEYQEDSDISSFFC [I8W]	4.69
EIGTSDQYVPEYQEDSDISSFFC [I8Y]	5.08
EIGTSDQIAPEYQEDSDISSFFC [V9A]	5.16
EIGTSDQICPEYQEDSDISSFFC [V9C]	5.31
EIGTSDQIDPEYQEDSDISSFFC [V9D]	5.51
EIGTSDQIEPEYQEDSDISSFFC [V9E]	5.74

Variant	protein stability index
EIGTSDQIFPEYQEDSDISSFFC [V9F]	4.94
EIGTSDQIGPEYQEDSDISSFFC [V9G]	5.29
EIGTSDQIHPEYQEDSDISSFFC [V9H]	5.32
EIGTSDQIIPEYQEDSDISSFFC [V9I]	4.93
EIGTSDQIKPEYQEDSDISSFFC [V9K]	5.49
EIGTSDQILPEYQEDSDISSFFC [V9L]	4.95
EIGTSDQIMPEYQEDSDISSFFC [V9M]	5.12
EIGTSDQINPEYQEDSDISSFFC [V9N]	5.57
EIGTSDQIPPEYQEDSDISSFFC [V9P]	5.38
EIGTSDQIQPEYQEDSDISSFFC [V9Q]	5.78
EIGTSDQIRPEYQEDSDISSFFC [V9R]	4.88
EIGTSDQISPEYQEDSDISSFFC [V9S]	5.26
EIGTSDQITPEYQEDSDISSFFC [V9T]	5.53
EIGTSDQIWPEYQEDSDISSFFC [V9W]	4.34
EIGTSDQIYPEYQEDSDISSFFC [V9Y]	5.2
EIGTSDQIVAEYQEDSDISSFFC [P10A]	5.38
EIGTSDQIVCEYQEDSDISSFFC [P10C]	5.2
EIGTSDQIVDEYQEDSDISSFFC [P10D]	5.63
EIGTSDQIVEEYQEDSDISSFFC [P10E]	5.54
EIGTSDQIVFEYQEDSDISSFFC [P10F]	3.77
EIGTSDQIVGEYQEDSDISSFFC [P10G]	4.82
EIGTSDQIVHEYQEDSDISSFFC [P10H]	5.41
EIGTSDQIVIEYQEDSDISSFFC [P10I]	4.09
EIGTSDQIVKEYQEDSDISSFFC [P10K]	5.56
EIGTSDQIVLEYQEDSDISSFFC [P10L]	4.87

Variant	protein stability index
EIGTSDQIVMEYQEDSDISSFFC [P10M]	5.19
EIGTSDQIVNEYQEDSDISSFFC [P10N]	5.23
EIGTSDQIVQEYQEDSDISSFFC [P10Q]	4.9
EIGTSDQIVREYQEDSDISSFFC [P10R]	5.56
EIGTSDQIVSEYQEDSDISSFFC [P10S]	5.59
EIGTSDQIVTEYQEDSDISSFFC [P10T]	5.48
EIGTSDQIVVEYQEDSDISSFFC [P10V]	5.1
EIGTSDQIVWEYQEDSDISSFFC [P10W]	4.52
EIGTSDQIVYEYQEDSDISSFFC [P10Y]	4.71
EIGTSDQIVPAYQEDSDISSFFC [E11A]	4.09
EIGTSDQIVPCYQEDSDISSFFC [E11C]	2.61
EIGTSDQIVPDYQEDSDISSFFC [E11D]	2.18
EIGTSDQIVPFYQEDSDISSFFC [E11F]	3.63
EIGTSDQIVPGYQEDSDISSFFC [E11G]	2.25
EIGTSDQIVPHYQEDSDISSFFC [E11H]	3.79
EIGTSDQIVPIYQEDSDISSFFC [E11I]	3.43
EIGTSDQIVPKYQEDSDISSFFC [E11K]	4.4
EIGTSDQIVPLYQEDSDISSFFC [E11L]	4.33
EIGTSDQIVPMYQEDSDISSFFC [E11M]	3.43
EIGTSDQIVPNYQEDSDISSFFC [E11N]	3.08
EIGTSDQIVPPYQEDSDISSFFC [E11P]	3.5
EIGTSDQIVPQYQEDSDISSFFC [E11Q]	3.12
EIGTSDQIVPRYQEDSDISSFFC [E11R]	3.68
EIGTSDQIVPSYQEDSDISSFFC [E11S]	3.1
EIGTSDQIVPTYQEDSDISSFFC [E11T]	2.77

Variant	protein stability index
EIGTSDQIVPVYQEDSDISSFFC [E11V]	2.52
EIGTSDQIVPWYQEDSDISSFFC [E11W]	4.16
EIGTSDQIVPYYQEDSDISSFFC [E11Y]	3.46
EIGTSDQIVPEAQEDSDISSFFC [Y12A]	3.25
EIGTSDQIVPECQEDSDISSFFC [Y12C]	3.68
EIGTSDQIVPEDQEDSDISSFFC [Y12D]	5.11
EIGTSDQIVPEEQEDSDISSFFC [Y12E]	4.77
EIGTSDQIVPEFQEDSDISSFFC [Y12F]	3.07
EIGTSDQIVPEGQEDSDISSFFC [Y12G]	3.27
EIGTSDQIVPEHQEDSDISSFFC [Y12H]	4.37
EIGTSDQIVPEIQEDSDISSFFC [Y12I]	2.91
EIGTSDQIVPEKQEDSDISSFFC [Y12K]	5.54
EIGTSDQIVPELQEDSDISSFFC [Y12L]	3.06
EIGTSDQIVPEMQEDSDISSFFC [Y12M]	2.12
EIGTSDQIVPENQEDSDISSFFC [Y12N]	5.03
EIGTSDQIVPEPQEDSDISSFFC [Y12P]	3.4
EIGTSDQIVPEQQEDSDISSFFC [Y12Q]	4.51
EIGTSDQIVPERQEDSDISSFFC [Y12R]	4.61
EIGTSDQIVPESQEDSDISSFFC [Y12S]	4.19
EIGTSDQIVPETQEDSDISSFFC [Y12T]	4.48
EIGTSDQIVPEVQEDSDISSFFC [Y12V]	3.07
EIGTSDQIVPEWQEDSDISSFFC [Y12W]	2.44
EIGTSDQIVPEYAEDSDISSFFC [Q13A]	2.54
EIGTSDQIVPEYCEDSDISSFFC [Q13C]	2.59
EIGTSDQIVPEYDEDSDISSFFC [Q13D]	2.9

Variant	protein stability index
EIGTSDQIVPEYEEDSDISSFFC [Q13E]	2.77
EIGTSDQIVPEYFEDSDISSFFC [Q13F]	1.81
EIGTSDQIVPEYGEDSDISSFFC [Q13G]	2.13
EIGTSDQIVPEYHEDSDISSFFC [Q13H]	2.24
EIGTSDQIVPEYIEDSDISSFFC [Q13I]	2.36
EIGTSDQIVPEYKEDSDISSFFC [Q13K]	3.39
EIGTSDQIVPEYLEDSDISSFFC [Q13L]	2.77
EIGTSDQIVPEYMEDSDISSFFC [Q13M]	2.36
EIGTSDQIVPEYNEDSDISSFFC [Q13N]	1.9
EIGTSDQIVPEYPEDSDISSFFC [Q13P]	3.5
EIGTSDQIVPEYREDSDISSFFC [Q13R]	2.92
EIGTSDQIVPEYSEDSDISSFFC [Q13S]	2.43
EIGTSDQIVPEYTEDSDISSFFC [Q13T]	1.97
EIGTSDQIVPEYVEDSDISSFFC [Q13V]	2.52
EIGTSDQIVPEYWEDSDISSFFC [Q13W]	1.72
EIGTSDQIVPEYYEDSDISSFFC [Q13Y]	2.12
EIGTSDQIVPEYQADSDISSFFC [E14A]	2.81
EIGTSDQIVPEYQCDSDISSFFC [E14C]	2.48
EIGTSDQIVPEYQDDSDISSFFC [E14D]	2.65
